Results reported in article PMC9482650, “Quantitative fragmentomics allow affinity mapping of interactomes” (Nature Communications, 2022).

Assays:
Assay in all cases: holdup assay
Parameters in all cases: key: below the threshold = too weak to quantify, mostly under pKd 3.1 to 4
Settings in all cases: plain residues with an end cap or a label only (N-terminal biotin on a linker: ado-ado)
SCRIB_2, Q14160 = biological target: SCRIB_2, Q14160
Inadl_5, Q8NI35 = biological target: Inadl_5, Q8NI35
PDZD2_2, O15018 = biological target: T1, PDZD2_2, O15018
T1 sequence (O15018 329-429, limits assumed, looked up): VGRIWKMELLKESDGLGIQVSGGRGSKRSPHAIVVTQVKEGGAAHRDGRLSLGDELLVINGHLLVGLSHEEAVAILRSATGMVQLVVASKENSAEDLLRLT

NHERF4_2, Q86UT5 = biological target: NHERF4_2, Q86UT5
NHERF3_4, Q5T2W1 = biological target: T2, NHERF3_4, Q5T2W1
T2 sequence (Q5T2W1 373-468, limits assumed, looked up): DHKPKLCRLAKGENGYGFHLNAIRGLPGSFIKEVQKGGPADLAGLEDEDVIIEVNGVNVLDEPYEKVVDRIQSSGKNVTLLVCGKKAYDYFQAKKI

TJP3_3, O95049 = biological target: T3, TJP3_3, O95049
T3 sequence (O95049 375-456, limits assumed, looked up): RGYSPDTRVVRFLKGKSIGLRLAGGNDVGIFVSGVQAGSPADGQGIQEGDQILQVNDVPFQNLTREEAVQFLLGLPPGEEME

SNTG1, Q9NSN8 = biological target: T4, SNTG1, Q9NSN8
T4 sequence (Q9NSN8 52-150, limits assumed, looked up): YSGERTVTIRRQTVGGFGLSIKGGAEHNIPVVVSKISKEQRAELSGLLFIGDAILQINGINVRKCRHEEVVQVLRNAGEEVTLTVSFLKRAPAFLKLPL

SNTA1, Q13424 = biological target: T5, SNTA1, Q13424
T5 sequence (Q13424 82-180, limits assumed, looked up): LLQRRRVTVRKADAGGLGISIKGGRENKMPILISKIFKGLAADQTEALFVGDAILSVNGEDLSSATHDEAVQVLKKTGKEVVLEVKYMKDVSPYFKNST

NHERF3_3, Q5T2W1 = biological target: T6, NHERF3_3, Q5T2W1
T6 sequence (Q5T2W1 238-333, limits assumed, looked up): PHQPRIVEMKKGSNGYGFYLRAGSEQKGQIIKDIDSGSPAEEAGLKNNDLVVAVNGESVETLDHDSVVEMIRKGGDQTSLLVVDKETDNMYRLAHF

FRMPD1, Q5SYB0 = biological target: T7, FRMPD1, Q5SYB0
T7 sequence (Q5SYB0 52-145, limits assumed, looked up): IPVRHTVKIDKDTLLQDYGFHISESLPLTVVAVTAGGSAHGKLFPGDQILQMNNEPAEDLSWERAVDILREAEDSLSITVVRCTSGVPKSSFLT

MAGI2_4, Q86UL8 = biological target: MAGI2_4, Q86UL8
GRIP1_2, Q9Y3R0 = biological target: T8, GRIP1_2, Q9Y3R0
T8 sequence (Q9Y3R0 145-248, limits assumed, looked up): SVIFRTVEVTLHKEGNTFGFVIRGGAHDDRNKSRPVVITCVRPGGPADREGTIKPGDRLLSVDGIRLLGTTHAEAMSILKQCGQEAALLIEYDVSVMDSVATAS

GIPC2, Q8TF65 = biological target: GIPC2, Q8TF65
LNX1_3, Q8TBB1 = biological target: LNX1_3, Q8TBB1
DLG1_3, Q12959 = biological target: DLG1_3, Q12959
MAGI2_3, Q86UL8 = biological target: MAGI2_3, Q86UL8
ARHGEF12, Q9NZN5-2 = biological target: ARHGEF12, Q9NZN5-2
PTPN3, P26045 = biological target: PTPN3, P26045
MAGI2_5, Q86UL8 = biological target: MAGI2_5, Q86UL8
CARD11, Q9BXL7 = biological target: T9, CARD11, Q9BXL7
T9 sequence (Q9BXL7 662-765, limits assumed, looked up): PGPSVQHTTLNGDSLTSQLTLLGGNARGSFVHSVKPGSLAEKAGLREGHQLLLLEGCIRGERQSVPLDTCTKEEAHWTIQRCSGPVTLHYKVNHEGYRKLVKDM

SIPA1L2, Q9P2F8 = biological target: T10, SIPA1L2, Q9P2F8
T10 sequence (Q9P2F8 945-1036, limits assumed, looked up): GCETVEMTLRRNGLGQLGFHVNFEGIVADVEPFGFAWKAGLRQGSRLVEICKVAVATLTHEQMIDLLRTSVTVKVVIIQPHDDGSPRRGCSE

GRIP2_4, Q9C0E4 = biological target: GRIP2_4, Q9C0E4
LDB3, O75112 = biological target: LDB3, O75112
Inadl_6, Q8NI35 = biological target: Inadl_6, Q8NI35
HTRA1, Q92743 = biological target: HTRA1, Q92743
HTRA4, P83105 = biological target: T11, HTRA4, P83105
T11 sequence (P83105 378-476, limits assumed, looked up): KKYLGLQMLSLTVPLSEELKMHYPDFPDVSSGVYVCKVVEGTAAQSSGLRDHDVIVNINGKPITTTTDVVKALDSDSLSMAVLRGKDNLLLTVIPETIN

PICK1, Q9NRD5 = biological target: PICK1, Q9NRD5
PICK1, Q9NRD5, sequence (Q9NRD5 17-115): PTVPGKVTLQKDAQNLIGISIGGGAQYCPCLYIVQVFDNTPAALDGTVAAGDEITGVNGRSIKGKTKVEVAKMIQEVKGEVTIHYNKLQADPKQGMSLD

HTRA1, Q92743, sequence (Q92743 360-477): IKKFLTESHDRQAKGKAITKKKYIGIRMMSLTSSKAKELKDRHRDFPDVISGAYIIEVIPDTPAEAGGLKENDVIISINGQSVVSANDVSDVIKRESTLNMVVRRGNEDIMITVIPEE
Inadl_6, Q8NI35, sequence (Q8NI35 1058-1167): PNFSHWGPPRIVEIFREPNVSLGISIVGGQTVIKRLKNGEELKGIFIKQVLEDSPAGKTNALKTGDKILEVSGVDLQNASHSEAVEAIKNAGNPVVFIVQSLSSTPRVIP
LNX1_3, Q8TBB1, sequence (Q8TBB1 500-596): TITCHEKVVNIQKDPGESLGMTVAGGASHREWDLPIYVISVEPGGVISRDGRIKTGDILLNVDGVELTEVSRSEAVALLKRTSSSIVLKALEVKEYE
SCRIB_2, Q14160, sequence (Q14160 857-960): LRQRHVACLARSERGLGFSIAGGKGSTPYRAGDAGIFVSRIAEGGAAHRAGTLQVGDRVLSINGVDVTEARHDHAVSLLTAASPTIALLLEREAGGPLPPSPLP
DLG1_3, Q12959, sequence (Q12959 457-571): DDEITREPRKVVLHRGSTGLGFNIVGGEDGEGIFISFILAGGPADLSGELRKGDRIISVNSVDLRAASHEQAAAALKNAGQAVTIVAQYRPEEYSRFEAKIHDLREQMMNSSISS
MAGI2_5, Q86UL8, sequence (Q86UL8 915-1017): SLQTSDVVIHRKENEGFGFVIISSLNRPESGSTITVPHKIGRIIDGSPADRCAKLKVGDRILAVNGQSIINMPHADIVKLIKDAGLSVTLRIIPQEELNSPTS
NHERF4_2, Q86UT5, sequence (Q86UT5 220-308): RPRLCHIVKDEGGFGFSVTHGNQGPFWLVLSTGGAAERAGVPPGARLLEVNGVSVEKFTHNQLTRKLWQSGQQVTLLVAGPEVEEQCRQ
ARHGEF12, Q9NZN5-2, sequence (Q9NZN5 other isoform, or with tags, fused parts or gaps): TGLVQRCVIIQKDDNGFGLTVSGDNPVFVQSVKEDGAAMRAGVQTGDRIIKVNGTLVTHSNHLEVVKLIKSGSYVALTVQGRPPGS
PTPN3, P26045, sequence (P26045 505-587): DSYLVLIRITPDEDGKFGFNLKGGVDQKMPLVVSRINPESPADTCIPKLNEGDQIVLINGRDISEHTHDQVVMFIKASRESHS
GRIP2_4, Q9C0E4, sequence (Q9C0E4 446-548): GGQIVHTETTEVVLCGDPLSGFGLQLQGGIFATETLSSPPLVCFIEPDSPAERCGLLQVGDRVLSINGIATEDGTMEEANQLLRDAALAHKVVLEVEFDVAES
LDB3, O75112, sequence (O75112 1-94): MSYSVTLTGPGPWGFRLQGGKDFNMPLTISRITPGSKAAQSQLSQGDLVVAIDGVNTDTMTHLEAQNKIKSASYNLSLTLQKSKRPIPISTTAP
MAGI2_4, Q86UL8, sequence (Q86UL8 772-865): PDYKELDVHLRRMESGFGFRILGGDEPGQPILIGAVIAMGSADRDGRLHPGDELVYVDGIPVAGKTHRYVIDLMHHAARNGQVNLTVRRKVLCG
Inadl_5, Q8NI35, sequence (Q8NI35 673-780): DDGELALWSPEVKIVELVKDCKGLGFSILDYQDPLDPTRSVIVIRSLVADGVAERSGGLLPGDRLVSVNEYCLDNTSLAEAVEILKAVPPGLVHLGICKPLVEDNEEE
GIPC2, Q8TF65, sequence (Q8TF65 112-203): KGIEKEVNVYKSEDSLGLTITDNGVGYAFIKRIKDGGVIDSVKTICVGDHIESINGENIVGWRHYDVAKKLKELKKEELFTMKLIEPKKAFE
MAGI2_3, Q86UL8, sequence (Q86UL8 600-682): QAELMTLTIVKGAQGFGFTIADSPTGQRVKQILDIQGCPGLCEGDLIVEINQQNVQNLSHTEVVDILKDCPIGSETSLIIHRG

## CLREWCDAFL [BANF1, O75531]
SCRIB_2, Q14160
  pKd: below the threshold
Inadl_5, Q8NI35
  pKd: below the threshold
PDZD2_2, O15018
  pKd: below the threshold
NHERF4_2, Q86UT5
  pKd: below the threshold
NHERF3_4, Q5T2W1
  pKd: 3.62
TJP3_3, O95049
  pKd: 3.86
SNTG1, Q9NSN8
  pKd: below the threshold
SNTA1, Q13424
  pKd: below the threshold
NHERF3_3, Q5T2W1
  pKd: below the threshold
FRMPD1, Q5SYB0
  pKd: below the threshold
MAGI2_4, Q86UL8
  pKd: 3.73
GRIP1_2, Q9Y3R0
  pKd: below the threshold
GIPC2, Q8TF65
  pKd: below the threshold
LNX1_3, Q8TBB1
  pKd: below the threshold
DLG1_3, Q12959
  pKd: below the threshold
MAGI2_3, Q86UL8
  pKd: below the threshold
ARHGEF12, Q9NZN5-2
  pKd: below the threshold
PTPN3, P26045
  pKd: 4.47
MAGI2_5, Q86UL8
  pKd: below the threshold
CARD11, Q9BXL7
  pKd: below the threshold
SIPA1L2, Q9P2F8
  pKd: below the threshold
GRIP2_4, Q9C0E4
  pKd: below the threshold
LDB3, O75112
  pKd: below the threshold
Inadl_6, Q8NI35
  pKd: 4.32
HTRA1, Q92743
  pKd: 5.01
HTRA4, P83105
  pKd: 3.64
PICK1, Q9NRD5
  pKd: below the threshold

## RRISSLESEV [GRIN2C, Q14957]
SCRIB_2, Q14160
  pKd: 4.28
Inadl_5, Q8NI35
  pKd: below the threshold
PDZD2_2, O15018
  pKd: 4.98
NHERF4_2, Q86UT5
  pKd: below the threshold
NHERF3_4, Q5T2W1
  pKd: 3.66
TJP3_3, O95049
  pKd: below the threshold
SNTG1, Q9NSN8
  pKd: 5.11
SNTA1, Q13424
  pKd: 4.53
NHERF3_3, Q5T2W1
  pKd: below the threshold
FRMPD1, Q5SYB0
  pKd: below the threshold
MAGI2_4, Q86UL8
  pKd: 3.95
GRIP1_2, Q9Y3R0
  pKd: below the threshold
GIPC2, Q8TF65
  pKd: 3.65
LNX1_3, Q8TBB1
  pKd: below the threshold
DLG1_3, Q12959
  pKd: 4.09
MAGI2_3, Q86UL8
  pKd: 4.11
ARHGEF12, Q9NZN5-2
  pKd: 4.31
PTPN3, P26045
  pKd: 4.98
MAGI2_5, Q86UL8
  pKd: 4.96
CARD11, Q9BXL7
  pKd: below the threshold
SIPA1L2, Q9P2F8
  pKd: below the threshold
GRIP2_4, Q9C0E4
  pKd: below the threshold
LDB3, O75112
  pKd: below the threshold
Inadl_6, Q8NI35
  pKd: below the threshold
HTRA1, Q92743
  pKd: 3.82
HTRA4, P83105
  pKd: below the threshold
PICK1, Q9NRD5
  pKd: below the threshold

## GSGAVEMESV [AQP6, Q13520]
SCRIB_2, Q14160
  pKd: below the threshold
Inadl_5, Q8NI35
  pKd: below the threshold
PDZD2_2, O15018
  pKd: 3.7
NHERF4_2, Q86UT5
  pKd: below the threshold
NHERF3_4, Q5T2W1
  pKd: below the threshold
TJP3_3, O95049
  pKd: below the threshold
SNTG1, Q9NSN8
  pKd: below the threshold
SNTA1, Q13424
  pKd: below the threshold
NHERF3_3, Q5T2W1
  pKd: below the threshold
FRMPD1, Q5SYB0
  pKd: below the threshold
MAGI2_4, Q86UL8
  pKd: below the threshold
GRIP1_2, Q9Y3R0
  pKd: below the threshold
GIPC2, Q8TF65
  pKd: below the threshold
LNX1_3, Q8TBB1
  pKd: below the threshold
DLG1_3, Q12959
  pKd: below the threshold
MAGI2_3, Q86UL8
  pKd: below the threshold
ARHGEF12, Q9NZN5-2
  pKd: below the threshold
PTPN3, P26045
  pKd: below the threshold
MAGI2_5, Q86UL8
  pKd: below the threshold
CARD11, Q9BXL7
  pKd: below the threshold
SIPA1L2, Q9P2F8
  pKd: below the threshold
GRIP2_4, Q9C0E4
  pKd: below the threshold
LDB3, O75112
  pKd: below the threshold
Inadl_6, Q8NI35
  pKd: below the threshold
HTRA1, Q92743
  pKd: below the threshold
HTRA4, P83105
  pKd: 3.88
PICK1, Q9NRD5
  pKd: below the threshold

## LGRSTPQSEV [DGKH, Q86XP1]
SCRIB_2, Q14160
  pKd: below the threshold
Inadl_5, Q8NI35
  pKd: below the threshold
PDZD2_2, O15018
  pKd: 4.72
NHERF4_2, Q86UT5
  pKd: below the threshold
NHERF3_4, Q5T2W1
  pKd: below the threshold
TJP3_3, O95049
  pKd: below the threshold
SNTG1, Q9NSN8
  pKd: 3.96
SNTA1, Q13424
  pKd: 3.8
NHERF3_3, Q5T2W1
  pKd: below the threshold
FRMPD1, Q5SYB0
  pKd: below the threshold
MAGI2_4, Q86UL8
  pKd: 3.52
GRIP1_2, Q9Y3R0
  pKd: below the threshold
GIPC2, Q8TF65
  pKd: below the threshold
LNX1_3, Q8TBB1
  pKd: below the threshold
DLG1_3, Q12959
  pKd: below the threshold
MAGI2_3, Q86UL8
  pKd: below the threshold
ARHGEF12, Q9NZN5-2
  pKd: 4.18
PTPN3, P26045
  pKd: 4.12
MAGI2_5, Q86UL8
  pKd: below the threshold
CARD11, Q9BXL7
  pKd: below the threshold
SIPA1L2, Q9P2F8
  pKd: below the threshold
GRIP2_4, Q9C0E4
  pKd: below the threshold
LDB3, O75112
  pKd: below the threshold
Inadl_6, Q8NI35
  pKd: below the threshold
HTRA1, Q92743
  pKd: below the threshold
HTRA4, P83105
  pKd: below the threshold
PICK1, Q9NRD5
  pKd: below the threshold

## PPYRHRNTVV [ERBB4, Q15303]
SCRIB_2, Q14160
  pKd: below the threshold
Inadl_5, Q8NI35
  pKd: 3.58
PDZD2_2, O15018
  pKd: 4.25
NHERF4_2, Q86UT5
  pKd: below the threshold
NHERF3_4, Q5T2W1
  pKd: below the threshold
TJP3_3, O95049
  pKd: below the threshold
SNTG1, Q9NSN8
  pKd: below the threshold
SNTA1, Q13424
  pKd: 5.32
NHERF3_3, Q5T2W1
  pKd: below the threshold
FRMPD1, Q5SYB0
  pKd: below the threshold
MAGI2_4, Q86UL8
  pKd: 4.43
GRIP1_2, Q9Y3R0
  pKd: below the threshold
GIPC2, Q8TF65
  pKd: 3.6
LNX1_3, Q8TBB1
  pKd: below the threshold
DLG1_3, Q12959
  pKd: 4.01
MAGI2_3, Q86UL8
  pKd: below the threshold
ARHGEF12, Q9NZN5-2
  pKd: 4.12
PTPN3, P26045
  pKd: 3.89
MAGI2_5, Q86UL8
  pKd: below the threshold
CARD11, Q9BXL7
  pKd: below the threshold
SIPA1L2, Q9P2F8
  pKd: below the threshold
GRIP2_4, Q9C0E4
  pKd: below the threshold
LDB3, O75112
  pKd: below the threshold
Inadl_6, Q8NI35
  pKd: below the threshold
HTRA1, Q92743
  pKd: 4.13
HTRA4, P83105
  pKd: below the threshold
PICK1, Q9NRD5
  pKd: below the threshold
